Reference: publication doi:10.1101/2022.08.09.503292
Where two headings read alike, the source gives them in different places.

How the values were obtained:
[1] = target: mono-nucleosome with extra-nucleosomal linker DNA (185-bp '601'), Oregon green 488 on H2B D51C (NCP^185) (human) (UniProt Q6FI13); assay: other fluorescence titration
BARD1 141-216 [2] = target: T1, BARD1 141-216 (UniProt Q99728 141-216); assay: NMR
BARD1 124-270 = BARD1 124-270 (UniProt Q99728 124-270); assay: NMR
BARD1 141-216 [3] = target: T1, BARD1 141-216; assay: NMR; remark: listed apart in the source

T1 sequence (Q99728 141-216): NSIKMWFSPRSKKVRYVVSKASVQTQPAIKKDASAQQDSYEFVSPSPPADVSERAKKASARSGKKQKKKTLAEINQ
Chain of BARD1 124-270 (Q99728 124-270): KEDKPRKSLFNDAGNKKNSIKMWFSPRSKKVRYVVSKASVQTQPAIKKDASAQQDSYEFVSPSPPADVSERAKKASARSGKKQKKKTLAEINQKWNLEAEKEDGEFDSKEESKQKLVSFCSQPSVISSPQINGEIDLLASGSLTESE

Molecule: BRCA1^RING/BARD1^216 heterodimer (from UniProt P38398 1-112; Q99728 1-216) (complex)
- fold increase in binding affinity with linker DNA (NCP^185 against NCP^147) [1]: < 2 fold

B1: 36-mer dsDNA (dsDNA)
DNA 1: CCTACGACGCCTGGGGTACCAGCGCAATTGTGTACC
DNA 2: GGTACACAATTGCGCTGGTACCCCAGGCGTCGTAGG
- binding result (BARD1 141-216 [2]): binds
- binding result (BARD1 124-270): binds

B2: 36-mer bubble-DNA (mixed)
DNA 1: CCTACGACGCCTGGCTCTTTCCCGCAATTGTGTACC
DNA 2: B1 DNA 2
- binding result (BARD1 141-216 [3]): binds
